Laboratory results from patent US20260125451A1 (JIANGSU HENGRUI PHARMACEUTICALS, published 2026).
One block for each binder: values may come before it.

Molecular target: T1, APRIL (Acro Biosystems, Cat: APL-H52D1) (UniProt O75888 115-250, limits assumed)
T1 construct: also called ARPIL; A proliferation-inducing ligand
T1 sequence (looked up): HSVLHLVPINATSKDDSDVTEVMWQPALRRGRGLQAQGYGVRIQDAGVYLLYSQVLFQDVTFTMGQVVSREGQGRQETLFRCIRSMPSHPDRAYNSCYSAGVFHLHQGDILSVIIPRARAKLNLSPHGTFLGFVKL
Experiment: ELISA, APRIL coated, anti-human Fc-HRP, OD450
Protocol: The capabilities of B613301, B613302, and B613303, which are fusion proteins of anifrolumab and TACI-BCMA, to bind to BAFF and APRIL were assessed by ELISA as follows:
BAFF (PeproTech, Cat: 310-13) or ARPIL (Acro Biosystems, Cat: APL-H52D1) was diluted to 1 μg/mL with PBS, and a 96-well plate (Costar, Cat: 3590) was coated with the dilution overnight at 4° C. The plate was washed with PBST and blocked with Blocking Buffer (PBST containing 1% BSA) at 37° C. for 1 h. The plate was tapped. The test antibodies were diluted with Blocking Buffer. Incubation was performed at 37° C. for 1.5 h. The plate was washed with PBST. An HRP-mouse anti-human Fc antibody (GenScript, Cat: A01854-200) was diluted with Blocking Buffer. Incubation was performed at 37° C. for 40 min. The plate was washed with PBST. 100 μL of TMB substrate solution (Biopanda, Cat: TMB-S-003) was added, and color development was performed at 37° C. for 3 min. 100 μL of ELISA stop solution (Solarbio, Cat: C1058) was added. OD450 was measured.

Emax: 2.49 nM
B1: B613301 (other)
heavy: EVQLVQSGAEVKKPGESLKISCKGSGYIFTNYWIAWVRQMPGKGLESMGIIYPGDSDIRYSPSFQGQVTISADKSITTAYLQWSSLKASDTAMYYCARHDIEGFDYWGRGTLVTVSSASTKGPSVFPLAPSSKSTSGGTAALGCLVKDYFPEPVTVSWNSGALTSGVHTFPAVLQSSGLYSLSSVVTVPSSSLGTQTYICNVNHKPSNTKVDKRVEPKSCDKTHTCPPCPAPEFEGGPSVFLFPPKPKDTLMISRTPEVTCVVVDVSHEDPEVKFNWYVDGVEVHNAKTKPREEQYNSTYRVVSVLTVLHQDWLNGKEYKCKVSNKALPASIEKTISKAKGQPREPQVYTLPPSRDELTKNQVSLTCLVKGFYPSDIAVEWESNGQPENNYKTTPPVLDSDGSFFLYSKLTVDKSRWQQGNVFSCSVMHEALHNHYTQKSLSLSPGK
light: EIVLTQSPGTLSLSPGERATLSCRASQSVSSSFFAWYQQKPGQAPRLLIYGASSRATGIPDRLSGSGSGTDFTLTITRLEPEDFAVYYCQQYDSSAITFGQGTRLEIKRTVAAPSVFIFPPSDEQLKSGTASVVCLLNNFYPREAKVQWKVDNALQSGNSQESVTEQDSKDSTYSLSSTLTLSKADYEKHKVYACEVTHQGLSSPVTKSFNRGECGGGGSGGGGSLSCRKEQGKFYDHLLRDCISCASICGQHPKQCAYFCENKLRSPGMLQMAGQCSQNEYFDSLLHACIPCQLRCSSNTPPLTCQRYCNASVTNSVKGTNA
notes: Fusion protein of anifrolumab and TACI-BCMA

Emax: 2.52 nM
B2: B613302 (other)
heavy: B1 heavy
light: EIVLTQSPGTLSLSPGERATLSCRASQSVSSSFFAWYQQKPGQAPRLLIYGASSRATGIPDRLSGSGSGTDFTLTITRLEPEDFAVYYCQQYDSSAITFGQGTRLEIKRTVAAPSVFIFPPSDEQLKSGTASVVCLLNNFYPREAKVQWKVDNALQSGNSQESVTEQDSKDSTYSLSSTLTLSKADYEKHKVYACEVTHQGLSSPVTKSFNRGECGGGGSGGGGSMLQMAGQCSQNEYFDSLLHACIPCQLRCSSNTPPLTCQRYCNASVTNSVKGTNALSCRKEQGKFYDHLLRDCISCASICGQHPKQCAYFCENKLRSPG
notes: as for B1
